The record followed here is the DeepSol protein solubility set.

A short description of the data set: soluble on expression in E. coli; label from the status in PepcDB or PDB records.
Take “SPEALRIGYQKGSIGMVLAKSHQLLEKRYPESKISWVEFPAGPQMLEALNVGSIDLGSTGDIPPIFAQAAGADLVYVGVEPPKPKAEVILVAENSPIKTVADLKGHKVAFQKGSSSHNLLLRALRQAGLKFTDIQPTYLTPADARAAFQQGNVDAWAIWDPYYSAALLQGGVRVLKDGTDLNQTGSFYLAARPYAEKNGAFIQGVLATFSEADALTRSQREQSIALLAKTMGLPAPVIASYLDHRPPTTIKPVNAEVAALQQQTADLFYENRLVPKKVDIRQRIWQPTQLEGKQLEFRVPGNENLYFQ”: the “soluble on expression in E. coli” value is on record as “soluble”.

Consider “MYLLRINIEGTINYGLYKYLYPALKAAEGKKSIAGLILVFNSGGGDAASSQLIHDLVKKIRKKKPVYSLALGICASGAYWIASASTKIYAIDTSLIGSIGVISIRPNVKKLMEKIGVDVMVYKSGKYKDMTSPFSEPNEEEKSVYQRLLDDIFEKFKRSVAEDRGIPSEKIDEIANGMVYSAKMAADNGLIDRIANYDDLVSDLTKEVGKRLKVKEFYIRKPLLQRLLGILEHHHHHH”, for which the “soluble on expression in E. coli” value is “not soluble”.

Consider “MSLLNPVLLPPKVKAYLSQGERFIKWDDETTVASPVILRVDPKGYYLYWTYQSKEMEFLDITSIRDTRFGKFAKMPKSQKLRDVFNMDFPDNSFLLKTLTVVSGPDMVDLTFHNFVSYKENVGKAWAEDVLALVKHPLTANASRSTFLDKILVKLKMQLNSEGKIPVKNFFQMFPADRKRVEAALSACHLPKGKNDAINPEDFPEPVYKSFLMSLCPRPEIDEIFTSYHAKAKPYMTKEHLTKFINQKQRDSRLNSLLFPPARPDQVQGLIDKYEPSGINAQRGQLSPEGMVWFLCGPENSVLAQDKLLLHHDMTQPLNHYFINSSHNTYLTAGQFSGLSSAEMYRQVLLSGCRCVELDCWKGKPPDEEPIITHGFTMTTDIFFKEAIEAIAESAFKTSPYPIILSFENHVDSPRQQAKMAEYCRTIFGDMLLTEPLEKFPLKPGVPLPSPEDLRGKILIKNKKNQFSGPTSSSKDTGGEAEGSSPPSAPAVWAGEEGTELEEEEVEEEEEEESGNLDEEEIKKMQSDEGTAGLEVTAYEEMSSLVNYIQPTKFVSFEFSAQKNRSYVISSFTELKAYDLLSKASVQFVDYNKRQMSRIYPKGTRMDSSNYMPQMFWNAGCQMVALNFQTMDLPMQQNMAVFEFNGQSGYLLKHEFMRRPDKQFNPFSVDRIDVVVATTLSITVISGQFLSERSVRTYVEVELFGLPGDPKRRYRTKLSPSTNSINPVWKEEPFVFEKILMPELASLRVAVMEEGNKFLGHRIIPINALNSGYHHLCLHSESNMPLTMPALFIFLEMKD”, for which the “soluble on expression in E. coli” value is reported as “soluble”.

“MAVVKVIRKLKAKRVVIKVGTSTLVYPDGSINLRAIDQLAFVISAMRHRGREVVLVSSGAIGVGLNYMGLKQRPKAIPEQQAIAAIGQTELISIYKERFAIYEQKIGQLLLTRDIFVYPKSHHNVLNTFEALLKQNVVPIVNENDTVAVDELDHETKFGDNDQLSAIVATNIGADLLIMLSDIDGFYDGNPNADARAQLLGHIEKVDQHTYKLAGGSGSRFGTGGMVTKLKAAERMIDANGQMILANGADPTIIFQILAGEPVGTLFGLEHHHHHH”: the “soluble on expression in E. coli” value is “not soluble”.

For “MLPEHLVSSHFRLSSPPPEATENSKNLPKGKTKLSDYEPDILISANAAGQHRNVLFEERDRHIKERLYCVAKIETFARLINALQAEGDIDAQTLSKILADKTAMINEKGNAIWLNLITRETDMPLFYSLEDKDERS”, the “soluble on expression in E. coli” value is on record as “not soluble”.

For the sequence “MGSDKIHHHHHHMLENTGLVLEGGGMRGVYTGGILEYFMEQDLYFPYVIGVSAGACHAASYLSRQRNRNKTVNIDYASHPKYLSYKNLWRKRQLFDMDFIFHEIPEKHVPFDFETYFNSPERFLVGTTDCETGQSVYFEKEGTNDDALNLLQASSSLPFIAPVVNYRGKQLLDGGISDPIPVRKAQEDGFKKSVVILTRNHGYAKKKSRFGWIAAKAYKKYPNLVNTMLNRYEVYNETLHYIEKEEQAGNLFVIRPEVPLQVDRMEKDTAKLQNLYEQGYEDAKRQFADLKAFLQK”, the “soluble on expression in E. coli” value was “not soluble”.

“MAHHHHHHMGGGGSIPRKKATSARQVSTDRSVRRLQTKRRVGEPRFNGIGYVTIPLCIQEDLPPPPEDDDAPDDSTRKFAWFVEDLDMPGEWELYPPDACERLDEARRSNMTECLVVVKKRMCTVNLVKMEHLCAGSNARPRQVKRVEVEVSNGTTTYQEKRKVPNDPFAEDSPRETPSPMELFESEENAVHDVGSATTTKAEPEKVPNLVRSILTEKTTSYAMSLTSNGTTVFSGTKAQMLRWDLKTAEVTAEFDVQDSVVLSNALSHDERHVVAGRSDCTASMHSVDGSTSCVFSGHQRKVYGVDFLLGDDRVATASMDCTVRIWDASTSTCVQTIGCSAASVFTVVTSDLNNHFALSAGDDNIIYAHDLRSGGDCVIDRFIDHASTVWCCALRNDEQVFASCGIDGVIRVWDIRNSSSPTLLLRHHEKPVHMVKFTPRGRAILSCGRDDNMRLTDAMTGEPLWRAVAHRRFVYRIAFSKEKKFILSSGGDHRVNVWNYDYIDRM”: the “soluble on expression in E. coli” value is recorded as “not soluble”.

In the case of “MGSDKIHHHHHHMGVKTAAIKPQINRFFERIINMIIDRERVKNTFAEYTSGYNATDPKIKLKIDHTYRVAELCELIARNLKLDEYETDVAWLTGMLHDVGRFEQIKCYNTFNDALSVDHANFGADLLFKEGLIDTYVDGFHDDKYGTIVENAIRNHSAFRIDERLDEYTVMFCNILRDADKVDIFRVNVDTPAEDIYNVTTEELKNSQVSPEVMAAFDERHAVLRSCKKTVVDHVAGHIALTFELVYPISLQIANERGYLDKMMAFESDNEVTGKQFEEIRAKLNEYVASVKPL”, the “soluble on expression in E. coli” value is listed as “not soluble”.

With “MGSSHHHHHHSSGLVPRGSHMKIAFVIRKDCSRCARIAESIIDLLPKDWEIIYDHEAAKFLNSKGLDISQISADVIITIGGDGTVLRTLQMAKGPVLGINMGGLGFLTELEVDEVGSAIFKLIKGQYRITESMKLKVEINGDRVEDCTNEAVVHTERIARIRQFKIYIDGHFLSTMKSDGIIVATPIGSSSYSSSAGGPLLLPTLKGMVISYLAPYSSRLKPVVVTSDSTVEIKIAGRDQECILILDGQREYTVRSGDTVRISRSENSARFLSFRESVYDRIRDKVIKHVVN”, the “soluble on expression in E. coli” value is on record as “soluble”.

Consider “DLGTQFLKIGIVKPGIPMDIALNTESRRKTPNVVMIQDGHRTFADAAIGMQVRYPHLVHGQLNDLVGKSTQHPSFELFKRRNTFFEVDDAPKNASSINFKLGGESYTVEALTAMILANAKKFTEEYAQAAEIKDVVITVPVYFTPAERLAVERAAQMAGLTVLQLINDGTAAALSHGIFRRKEIGEKPQRLMVYDMGAAKTTATIVEFKLVKEKYEKQPKMTVLGVGFDRTLGGIEMTNRLRDHLIEMFEKNYKPKTKVNTNRRAMTKFSKEAERLKQVLSANAEHFAQIESAHEDIDAKLKVTREDFNHLISDMESRFGEPIEQALRMAQIPIDDIDQFVLMGAGTRVPKVQEIVQKTIGTKEIGKFLNTDEAVAMGALFQAAHLSKGFKVKPFNIEEKVIFPVEVHFVSKIRDEKTEEITGEKNVVKTLFAANSVYPTHPKTISLTSYSDDFSVALKYGKIESFTKQQVQEIGSLLDNLVDVEISGLSEALKNRSSEESEFKGVKVSFIVDASGIVRVRRAEALFEPKSGLVGSIASTISGLFSSKTEEGEPTTDDSTPQSTEEKTEEKESVKVEDSTPEPEPETPVNSTSEESPKTNETEKNASSGNATEVKEKKKELPSIVRLRITNKYPSAFVPNKYDVQEEKRRMEAFAEKERLASERAAVENELESFNFECSQYLEETEFTDYMADEEKTKLEDSVKRIRAWLEDDVTKDTPTKDFTDNLLELKNVVRSVKKRQEHDKAVPEKLKSLETLLETTFSLTTLGNNVDEEKALFKKEDRDGLKSKLDKLKIWVTDVRKHLDLKKKTDDFNFTGKDIDTKTKNLNREVDRFMKKMKKITTLDDLAKDGKIDIDTIVEEAEKKKAEQDKKKEKKSTKKANESKVENESEIKTEL”, for which the “soluble on expression in E. coli” value is “not soluble”.

Turning to “MAEGKAGGAAGLFAKQVQKKFSRAQEKVLQKLGKAVETKDERFEQSANNFYQQQAEGHKLYKDLKNFLSAVKVMHESSKRVSETLQEIYSSEWDGHEELKAIVWNNDLLWEDYEEKLADQAVRTMEIYVAQFSEIKERIAKRGRKLVDYDSARHHLEAVQNAKKKDEAKTAKAEEEFNKAQTVFEDLNQELLEELPILYNSRIGCYVTIFQNISNLRDVFYREMSKLNHNLYEVMSKLEKQHSNKVFVVKGLSSSSRRSLVISPPVRTATVSSPLTSPTSPSTLSLKSESESVSATEDLAPDAAQGEDNSEIKELLEEEEIEKEGSEASSSEEDEPLPACNGPAQAQPSPTTERAKSQEEVLPSSTTPSPGGALSPSGQPSSSATEVVLRTRTASEGSEQPKKRASIQRTSAPPSRPPPPRATASPRPSSGNIPSSPTASGGGSPTSPRASLGTGTASPRTSLEVSPNPEPPEKPVRTPEAKENENIHNQNPEELCTSPTLMTSQVASEPGEAKKMEDKEKDNKLISADSSEGQDQLQVSMVPENNNLTAPEPQEEVSTSENPQL”, the “soluble on expression in E. coli” value was “soluble”.

Take “MASKIEPGSPQPIYLDVQATAPMDPRVVDAMLPYMINDFGNPHSRTHSYGWKAEEGVEQAREHVANLIKADPRDIIFTSGATESNNLAIKGVAKFRKQSGKNHIITLQTEHKCVLDSCRYLENEGFKVTYLPVDKGGMVDMEQLTQSITAETCLVSIMFVNNEIGVMQPIKQIGELCRSKGVYFHTDAAQATGKVPIDVNEMKIDLMSISAHKIYGPKGAGALYVRRRPRVRIEAQMSGGGQERGLRSGTVAAPLCIGLGEAAKIADKEMAMDKAHVERLSQMLINGISDKLPHIIRNGDARHAYPGCVNLSFAYVEGESLLMALKSIALSSGSACTSASLEPSYVLRAIGSEEDLAHSSIRFGLGRFTTDEEVKHTIDLCIRETNRLRDLSPLWEMVQEGIDLKSIQWTQH”: the “soluble on expression in E. coli” value is reported as “not soluble”.

Take “TDLDAVRIKVDTVNAKPGDTVRIPVRFSGIPSKGIANCDFVYSYDPNVLEIIEIEPGELIVDPNPTKSFDTAVYPDRKMIVFLFAEDSGTGAYAITEDGVFATIVAKVKSGAPNGLSVIKFVEVGGFANNDLVEQKTQFFDGGVNVG”: the “soluble on expression in E. coli” value is “soluble”.

As to “MYARYAGLIFDMDGTLLDTEPTHRKAWREVLGRYGLRFDEQAMVALNGSPTWLIAQSIIELNHADLDPLSLAREKTDAVKSILLDCVEPLPLVEVVKAWHGRRPMSVGTGSESAIAEALLAHLGLRRYFDAVVAADHVQHHKPAPDTFLLCAQRMGVMPTQCVVFEDADFGLQAARAAGMDAVDVRLL”, the “soluble on expression in E. coli” value was “not soluble”.

On to “MTSGQFKPVPQILMELPPAEQQRLFNEAAAIIRHLEWTDAVQLTALVMGSEALQQQLLAMLVNYVTKELRAEIQYDD”, for which the “soluble on expression in E. coli” value is reported as “soluble”.

Take “MSLDKLLERFLNYVSLDTQSKAGVRQVPSTEGQWKLLHLLKEQLEEMGLINVTLSEKGTLMATLPANVPGDIPAIGFISHVDTSPDCSGKNVNPQIVENYRGGDIALGIGDEVLSPVMFPVLHQLLGQTLITTDGKTLLGADDKAGIAEIMTALAVLQQKKIPHGDIRVAFTPDEEVGKGAKHFDVDAFDARWAYTVDGGGVGELEFENFNAASVNIKIVGNNVHPGTAKGVMVNALSLAARIHAEVPADESPEMTEGYEGFYHLASMKGTVERADMHYIIRDFDRKQFEARKRKMMEIAKKVGKGLHPDCYIELVIEDSYYNMREKVVEHPHILDIAQQAMRDCDIEPELKPIRGGTDGAQLSFMGLPCPNLFTGGYNYHGKHEFVTLEGMEKAVQVIVRIAELTAQRKEGGSHHHHHH”: the “soluble on expression in E. coli” value is listed as “soluble”.

Consider “MGSDKIHHHHHHMSDKTNLSHNVVNKEEFAGDPKPHPAAYTLVREDKGLGSTPKLPLETSYVKGLLKHDKFFQKALSNPIVAREFFEEYLPTEIKALFSPTTLTLENDSFIDPNLKESITDVLYSARINNRDCYIYILCEHQSSSDPHMAFRLFKYMLNIAEKHLISHPDSKKFPFIYPLVYSNDHKKYTAPLNLWDLFENSELVKDTWSNNYQLISLRDISDDKLKENPWLAPLQILMKYIHKPNVFDKWQEISGCLATIAASSSGIEYIKSALSYSLTKI”, for which the “soluble on expression in E. coli” value was “not soluble”.
